Data from publication PMC9708914 (iScience, 2022).

Assays:
cross-linking = target: the molecule itself; assay: cross-linking
crystal structure = target: the molecule itself; assay: crystal structure

B1: MgtE ΔN T336C/L421C (TtMgtE 130-450, T336C/L421C) (domain or fragment, Thermus thermophilus, UniProt Q5SMG8 130-450, looked up)
chain: EEDEAGGLMTPEYVAVREGMTVEEVLRFLRRAAPDAETIYYIYVVDEKGRLKGVLSLRDLIVADPRTRVAEIMNPKVVYVRTDTDQEEVARLMADYDFTVLPVVDEEGRLVGIVTVDDVLDVLEAEATEDIHKLGAVDVPDLVYSEAGPVALWLARVRWLVILILTGMVTSSILQGFESVLEAVTALAFYVPVLLGTGGNTGNQSACLIIRALATRDLDLRDWRRVFLKEMGVGLLLGLTLSFLLVGKVYWDGHPLLLPVVGVSLVLIVFFANLVGAMLPFLLRRLGVDPACVSNPLVATLSDVTGLLIYLSVARLLLEAV
- stoichiometry N (cross-linking): 2

B2: Thermus thermophilus MgtE transmembrane (TM) domain (TtMgtE 268-450) (domain or fragment, UniProt Q5SMG8 268-450, looked up)
chain: VPDLVYSEAGPVALWLARVRWLVILILTGMVTSSILQGFESVLEAVTALAFYVPVLLGTGGNTGNQSATLIIRALATRDLDLRDWRRVFLKEMGVGLLLGLTLSFLLVGKVYWDGHPLLLPVVGVSLVLIVFFANLVGAMLPFLLRRLGVDPALVSNPLVATLSDVTGLLIYLSVARLLLEAV
- binding result (crystal structure): binds
